± gives the uncertainty stated by the source.
B1: Receptor-interacting serine/threonine-protein kinase 2, residues 438 to 518; numbered along this chain, O43353 (parent)
chain: QWIQSKREDIVNQMTEACLNQSLDALLSRDLIMKEDYELVSTKPTRTSKVRQLLDTTDIQGEEFAKVIVQKLKDNKQMGLQ

Variants of: B1
Assay: abundance fitness (aPCA) (normalised: wild type 0, dead -1); higher = more abundant; growth selection in yeast, the domain comes from the species named
Details: Homo sapiens
Q21M gave an abundance fitness of -0.736 ± 0.19. Q21S showed an abundance fitness of -0.141 ± 0.062. Variant Q21E has an abundance fitness of -0.096 ± 0.1. For Q21L, the abundance fitness was -0.319 ± 0.073. For Q21T, the abundance fitness was -0.344 ± 0.08. In the case of Q21G, the abundance fitness is reported as -0.432 ± 0.064. In the case of Q21A, the abundance fitness is reported as 0.089 ± 0.12. For Q21I, the abundance fitness was -0.788 ± 0.1. Variant Q21K has an abundance fitness of -0.338 ± 0.18. Q21V gave an abundance fitness of -0.382 ± 0.085. Variant Q21N has an abundance fitness of -0.357 ± 0.2. Q21W gave an abundance fitness of -1.07 ± 0.2. With Q21P the abundance fitness was -0.793 ± 0.1. In the case of Q21F, the abundance fitness is reported as -0.776 ± 0.28. For Q21H, the abundance fitness was -0.562 ± 0.13. Q21Y gave an abundance fitness of -0.313 ± 0.22. Q21D showed an abundance fitness of 0.183 ± 0.11. For Q21R, the abundance fitness was -0.286 ± 0.051. Q21C showed an abundance fitness of -0.475 ± 0.12. Variant A25F has an abundance fitness of -0.052 ± 0.16. Variant A25H has an abundance fitness of -0.225 ± 0.16. A25E showed an abundance fitness of 0.183 ± 0.072. Variant A25T has an abundance fitness of -0.174 ± 0.075. A25I showed an abundance fitness of -0.339 ± 0.14. Variant A25L has an abundance fitness of -0.303 ± 0.063. For A25P, the abundance fitness was -0.737 ± 0.082. A25S gave an abundance fitness of -0.233 ± 0.057. A25V showed an abundance fitness of -0.133 ± 0.092. In the case of A25R, the abundance fitness is reported as -0.592 ± 0.063. With A25Q the abundance fitness was -0.43 ± 0.096. In the case of A25K, the abundance fitness is reported as -0.732 ± 0.15. In the case of A25W, the abundance fitness is reported as -0.969 ± 0.17. For A25N, the abundance fitness was -0.343 ± 0.062. With A25D the abundance fitness was -0.088 ± 0.1. For A25G, the abundance fitness was -0.451 ± 0.067. Work on S28P yielded an abundance fitness of -0.847 ± 0.18. Variant S28F has an abundance fitness of -0.665 ± 0.29. With S28I the abundance fitness was -0.475 ± 0.2. In the case of S28H, the abundance fitness is reported as -0.25 ± 0.12. Work on S28Q yielded an abundance fitness of 0.041 ± 0.11. S28L gave an abundance fitness of -0.204 ± 0.065. Variant S28D has an abundance fitness of -0.36 ± 0.16. Work on S28R yielded an abundance fitness of -0.082 ± 0.062. With S28C the abundance fitness was -0.283 ± 0.13. Work on S28Y yielded an abundance fitness of -0.26 ± 0.1. Work on S28T yielded an abundance fitness of -0.165 ± 0.12. Variant S28G has an abundance fitness of -0.363 ± 0.064. Variant S28E has an abundance fitness of 0.03 ± 0.14. S28W gave an abundance fitness of -0.527 ± 0.14. In the case of S28K, the abundance fitness is reported as 0.095 ± 0.093. S28M gave an abundance fitness of -0.259 ± 0.11. In the case of S28V, the abundance fitness is reported as -0.175 ± 0.089. I32V showed an abundance fitness of -0.373 ± 0.085. I32C showed an abundance fitness of -0.679 ± 0.14. Variant I32M has an abundance fitness of -0.183 ± 0.11. I32K showed an abundance fitness of -0.94 ± 0.42. Variant I32T has an abundance fitness of -0.594 ± 0.12. I32P showed an abundance fitness of -0.437 ± 0.071. For I32E, the abundance fitness was -0.731 ± 0.2. In the case of I32H, the abundance fitness is reported as -0.527 ± 0.13. In the case of I32S, the abundance fitness is reported as -0.593 ± 0.078. I32R gave an abundance fitness of -0.592 ± 0.071. I32L showed an abundance fitness of -0.029 ± 0.055. For I32W, the abundance fitness was -0.442 ± 0.14. I32Q showed an abundance fitness of -0.273 ± 0.14. For I32F, the abundance fitness was -0.842 ± 0.23. With I32A the abundance fitness was -0.686 ± 0.11. Work on I32G yielded an abundance fitness of -0.707 ± 0.094. For R29T, the abundance fitness was -0.438 ± 0.11. R29H showed an abundance fitness of -0.345 ± 0.17. With R29G the abundance fitness was -0.238 ± 0.062. With R29W the abundance fitness was -0.575 ± 0.16. R29E showed an abundance fitness of -0.152 ± 0.12. In the case of R29Y, the abundance fitness is reported as -0.321 ± 0.14. Variant R29M has an abundance fitness of -0.076 ± 0.1. R29K showed an abundance fitness of 0.002 ± 0.17. Work on R29F yielded an abundance fitness of 0.192 ± 0.27. With R29S the abundance fitness was -0.297 ± 0.07. With R29I the abundance fitness was -0.88 ± 0.22. With R29L the abundance fitness was 0.01 ± 0.07. R29V showed an abundance fitness of -0.66 ± 0.14. With R29N the abundance fitness was -0.044 ± 0.21. In the case of R29Q, the abundance fitness is reported as -0.059 ± 0.091. Variant R29P has an abundance fitness of -0.433 ± 0.079. R29C gave an abundance fitness of -0.403 ± 0.22. Work on C18H yielded an abundance fitness of -0.747 ± 0.2. C18V gave an abundance fitness of -0.004 ± 0.079. With C18S the abundance fitness was -0.24 ± 0.061. Work on C18R yielded an abundance fitness of -0.559 ± 0.071. C18L gave an abundance fitness of -0.519 ± 0.072. C18N gave an abundance fitness of -0.288 ± 0.16. With C18T the abundance fitness was 0.158 ± 0.084. C18P showed an abundance fitness of -0.299 ± 0.074. C18F gave an abundance fitness of -0.375 ± 0.19. C18D gave an abundance fitness of -0.796 ± 0.25. Work on C18Q yielded an abundance fitness of -0.316 ± 0.11. C18A showed an abundance fitness of -0.151 ± 0.067. C18G gave an abundance fitness of -0.425 ± 0.062. In the case of C18M, the abundance fitness is reported as -0.264 ± 0.23. For C18Y, the abundance fitness was -0.795 ± 0.22. For C18I, the abundance fitness was -0.384 ± 0.12. C18E showed an abundance fitness of 0.062 ± 0.095. Work on N20A yielded an abundance fitness of -0.048 ± 0.21. N20W showed an abundance fitness of 0.075 ± 0.11. In the case of N20Q, the abundance fitness is reported as -0.091 ± 0.42. Work on N20R yielded an abundance fitness of -0.106 ± 0.098. Work on N20V yielded an abundance fitness of -0.274 ± 0.11. In the case of N20Y, the abundance fitness is reported as 0.112 ± 0.2. For N20C, the abundance fitness was -0.564 ± 0.16. N20S showed an abundance fitness of -0.043 ± 0.11. For N20T, the abundance fitness was -0.29 ± 0.17. N20H showed an abundance fitness of 0.119 ± 0.38. With N20K the abundance fitness was 0.117 ± 0.22. In the case of N20E, the abundance fitness is reported as -0.571 ± 0.36. Work on N20F yielded an abundance fitness of 0.023 ± 0.37. Variant N20L has an abundance fitness of -0.102 ± 0.1. Variant N20G has an abundance fitness of -0.159 ± 0.072. For N20P, the abundance fitness was -0.829 ± 0.24. Variant A17K has an abundance fitness of -0.072 ± 0.2. Variant A17I has an abundance fitness of -0.569 ± 0.21. In the case of A17L, the abundance fitness is reported as -0.186 ± 0.068. A17M showed an abundance fitness of -0.25 ± 0.16. A17N showed an abundance fitness of -0.166 ± 0.17. Variant A17Y has an abundance fitness of -0.137 ± 0.12. Variant A17P has an abundance fitness of -0.33 ± 0.057. Variant A17E has an abundance fitness of 0.182 ± 0.11. Variant A17Q has an abundance fitness of 0.076 ± 0.088. A17W showed an abundance fitness of -0.485 ± 0.1. With A17F the abundance fitness was -0.839 ± 0.16. Work on A17V yielded an abundance fitness of 0.004 ± 0.067. A17H gave an abundance fitness of -0.043 ± 0.11. Variant A17G has an abundance fitness of -0.175 ± 0.055. In the case of A17S, the abundance fitness is reported as -0.117 ± 0.056. A17T showed an abundance fitness of 0.131 ± 0.083. A17D gave an abundance fitness of 0.042 ± 0.11. In the case of D36H, the abundance fitness is reported as -0.194 ± 0.14. D36Q gave an abundance fitness of 0.121 ± 0.084. Variant D36P has an abundance fitness of -0.459 ± 0.065. Variant D36W has an abundance fitness of -1.04 ± 0.16. D36L gave an abundance fitness of -0.791 ± 0.11. In the case of D36C, the abundance fitness is reported as -0.839 ± 0.23. Variant D36Y has an abundance fitness of -0.608 ± 0.28. D36N showed an abundance fitness of -0.678 ± 0.37. In the case of D36S, the abundance fitness is reported as -0.551 ± 0.077. In the case of D36K, the abundance fitness is reported as -0.545 ± 0.14. D36T showed an abundance fitness of -0.244 ± 0.11. With D36M the abundance fitness was -0.711 ± 0.22. Variant D36R has an abundance fitness of -0.718 ± 0.074. For D36V, the abundance fitness was -0.587 ± 0.24. D36A showed an abundance fitness of -0.267 ± 0.11. D36E gave an abundance fitness of -0.147 ± 0.11. Variant D36G has an abundance fitness of -0.551 ± 0.1. Variant L27D has an abundance fitness of -0.198 ± 0.13. Variant L27V has an abundance fitness of -0.067 ± 0.051. L27N gave an abundance fitness of -0.395 ± 0.17. L27M gave an abundance fitness of 0.128 ± 0.24. L27P gave an abundance fitness of -0.328 ± 0.07. Variant L27S has an abundance fitness of -0.104 ± 0.075. Work on L27R yielded an abundance fitness of -0.157 ± 0.068. With L27K the abundance fitness was -0.041 ± 0.13. L27C gave an abundance fitness of -0.668 ± 0.16. Work on L27Y yielded an abundance fitness of -0.069 ± 0.13. L27F showed an abundance fitness of -0.353 ± 0.19. With L27H the abundance fitness was -0.284 ± 0.18. For L27T, the abundance fitness was -0.355 ± 0.12. L27A showed an abundance fitness of -0.251 ± 0.088. Work on L27G yielded an abundance fitness of -0.609 ± 0.071.
